In PMC3324464, “The GPI Anchor Signal Sequence Dictates the Folding and Functionality of the Als5 Adhesin from Candida albicans” (PLoS ONE, 2012):
Entries after “also recorded” stand apart in the source; their conditions may differ.

Columns and labels:
[1] = Aggregation/precipitation on concentrating the protein; type: physicochemical; conditions: attempts to concentrate protein above ∼0.09 mg/ml
Source text: However, we observed bands of Mr ∼270 kDa, for both GST-Als5 and GST-Als5-SS (Figure 1B). This marked difference between the observed molecular weights in SDS-PAGE and the expected molecular weights has been previously attributed to the high content of hydroxyl amino acids in proteins; both Als5 and Als5-SS are rich in serine and threonine residues.
It must be pointed out that a PreScission^TM protease site exists between the fusion tag and the Als5 proteins in the two constructs. However, our attempts to cleave off the fusion tag with the protease met with poor success. The PreScission^TM protease is also available as a GST-tagged enzyme and it is possible that steric factors precluded the interaction of the protease with the cleavage site in our fusion protein. Additionally, our protein yields to begin with were very low (∼0.09 mg/ml) and this too could have affected the efficiency of the cleavage. […] We used similarly expressed and purified GST as the control for all our experiments. Similar studies with GST-tagged proteins, including conformational studies, have been reported by other groups previously (cf.).

Candida SC5314 cells = test: Competition of anti-Als5 antibody binding to Candida cell surface, flow cytometry; type: cell-based, Candida albicans; conditions: TRITC secondary antibody, 37 °C 1 hour, mean of 3 independent experiments in duplicates
Procedure: The production of the antibodies was outsourced (Merck India Ltd.). Polyclonal antibodies were generated in rabbit against the protein band obtained after an SDS-PAGE run of GST- Als5-SS. The antibodies detected both GST-Als5 as well as GST-Als5-SS on a Western Blot. The specificity of the generated anti-Als5 antibody was checked by detecting its ability to bind to the Candida cell surface adhesins. For staining, Candida SC5314 cells (a kind gift from Prof. Rajendra Prasad, SLS, JNU) were grown in synthetic dextrose minimal medium at 30°C to an OD600nm of 0.5. 500 µl of the cells were taken in an eppendorf and washed with PBS. […] The cells were then washed thrice with PBS, and the presence of the TRITC labelled secondary Ab on the Candida cells was detected using flow cytometry. To rule out the non-specific interaction of the secondary Ab with the proteins on Candida cell surface, unstained cells were also detected by flow cytometer. […]
In order to confirm the identity of the Als5 protein, we also designed the following experiment. […] Using a TRITC labelled secondary antibody, we detected the bound primary antibodies on the Candida cells by flow cytometry. […]
Figure 2 GST-Als5 specifically blocks binding of anti-Als5 antibody on Candida cell surface. […] This primary antibody was detected by a secondary antibody that was conjugated with TRITC and detected using flow cytometry as described in the text. […]

B1: GST-Als5: GST fusion of full length Als5 minus the GPI anchor attachment signal sequence, expressed in E. coli (protein)
chain: ITGIFNSIDSLTWSNAGNYAFKGPGYPTWNAVLGWSLDGTSANPGDTFILNMPCVFKFTASQKSVDLTADGVKYATCQFYSGEEFTTFSSLKCTVNNNLRSSIKALGTVTLPIAFNVGGTGSSVDLEDSKCFTAGTNTVTFNDGSKKLSIAVNFEKSTVDQSGYLTTSRFMPSLNKIATLYVAPQCENGYTSGTMGFSTSYGDVAIDCSNVHIGISKGVNDWNHPVTSESFSYTKSCSSFGISITYQNVPAGYRPFIDAYISPSDNNQYQLSYKNDYTCVDDYWQHAPFTLKWTGYKNSDAGSNGIVIVATTRTVTDSTTAVTTLPFNPSVDKTKTIEILQPIPTTTITTSYVGVTTSYSTKTAPIGETATVIVDVPYHTTTTVTSEWTGTITTTTTRTNPTDSIDTVVVQVPLPNPTTTTTQFWSESFTSTTTITNSLKGTDSVIVREPHNPTVTTTEFWSESYATTETITNGPEGTDSVIVREPHNPTVTTTEFWSESYATTETVTNKPEGTDSVIIKEPHNPTVTTTEFWSESYATTETITTGPLGTDSIVIHDPLEESSSTTAIESSDSNISSSAQESSSSVEQSSSIVGLSSSSDIPLSSDMPSSSSTGLTSSESSTVSSYDSDSSSSSELSTFSSSESYSSSISDTTNFWDSSSSDLESTSITWSSSIDAQSSQSVQSVSNSISTSQETTSSSGEESNTSVTDILVSSDASSILNSDISSYYPSSTISLSDDFPHTIAGEPDSRSSSSIASTVEISSDLVSLTSDPTSSFDSSSSLNSDSSSSPFSDESDISASSSFSTLVAPSFSLSSSSSLSLTYPHYVNSTTYHASESESSSVASPSMASESANDDTHTLSESTDTTSSIGTDSSTVTFCRRDNGDGCIVTGMPSSSIDSEQTSDVTTTSSFVASSTPTSAEQSITDNPNIDSSQTSASSSTKSSVSVSDTVVNSISLSETSTLSSDDSTSSDTSISSTTNSDTGNINAGSSHTSTASIKESSIQKTGVMLSSSYLSTKLSSTSDITTELITTELITTELTTIEDNEPNTFTSTPSSHSEIFSSDNSVLSKQVDRESTIKTSPTTDVTTVSSLSVHSTEASTATLGENSFSNVASTPSNIATSLRSTSSSSNHATESSGTVKSEASAEAIPSPPTSTDNRLSYSTEEAKGITYANSGSTNNLITESQVAAPTDSTSVLIENPVVTSTFDDNSSAAVDQPSKTKSIEESIMNPDSTNETNNGFIATLSQAQVPNSLIHSESISTTMAKTTDASINGDSAASNSQPTTLIQQVATSSYNQPLITTYAGSSS
modifications: left off: GST, N-terminal, kept
aggregation and precipitation on concentrating (in words) [1]: aggregating and precipitating out; also recorded: tended to aggregate and precipitate out of solution
inhibition of anti-Als5 antibody binding to Candida cells (in words) (Candida SC5314 cells): could inhibit the interaction of the primary antibodies to the cell surface in a concentration dependent manner; also recorded: inhibited the binding of anti-Als5 antibody to C.albicans cell surface in a concentration dependent manner
